Earlier results as cited in paper PMC2669593.

Target: CaVβ1b (UniProt Q02641)
UniProt Q02641, sequence (Q02641 whole entry): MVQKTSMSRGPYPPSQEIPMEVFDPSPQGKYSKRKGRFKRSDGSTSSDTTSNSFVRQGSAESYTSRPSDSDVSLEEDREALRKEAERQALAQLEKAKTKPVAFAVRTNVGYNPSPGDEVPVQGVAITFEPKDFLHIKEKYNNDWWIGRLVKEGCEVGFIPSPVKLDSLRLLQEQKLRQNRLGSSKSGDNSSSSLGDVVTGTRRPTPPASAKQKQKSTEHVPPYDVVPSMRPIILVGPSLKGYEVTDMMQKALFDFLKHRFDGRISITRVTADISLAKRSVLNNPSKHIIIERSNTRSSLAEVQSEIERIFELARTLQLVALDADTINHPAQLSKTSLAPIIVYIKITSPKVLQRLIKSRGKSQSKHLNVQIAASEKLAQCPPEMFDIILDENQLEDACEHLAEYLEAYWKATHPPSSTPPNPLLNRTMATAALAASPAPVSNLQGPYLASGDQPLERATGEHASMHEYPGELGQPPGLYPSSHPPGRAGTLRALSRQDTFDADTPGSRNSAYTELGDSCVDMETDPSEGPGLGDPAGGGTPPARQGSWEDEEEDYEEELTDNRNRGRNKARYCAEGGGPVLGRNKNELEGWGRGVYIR

In the case of “CaV2.2 I-II linker (from UniProt Q00975)”, the Kd is given as 10 nM.
